Laboratory results reported in the nanobody polyreactivity screen of Harvey et al. (2022).

Assay: yeast display, Sf9 membrane polyspecificity reagent, FACS + sequencing; frameworks hold sequencing errors
In short: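 Using colony PCR, genes from sorted yeast display clones were amplified, then sequenced on MiSeq at 2 × 250 and filtered by CDR length. The clones had been stained with 10% biotinylated, detergent-solubilized Sf9 membrane reagent for 1 hour at 4 °C and sorted by FACS into low and high (top ~1%) gates on anti-HA and streptavidin fluorescence. Polyreactivity labels come from the gate of origin.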

## QVQLVESGGGLVQAGGSLRLSCAASGFIFRYYGMGWYRQAPGKERELVAAITDGGSTTYADSVKGRFTISRDNAKNTVYLQMNSLKPEDTAVYYCNAEAGGFDYYGKTYRYGDYWGQGTQVTVSS
  polyreactivity (PSR sort gate): low polyreactivity

## QVQLVESGGGLVQAGGSLRLSCAASGRIFKYYAMGWYRQAPGKERELVAAISTSVGSTYYADSVKGRFTISRDNAKNTVYLQMNSLKPEDTAVYYCNTRKYHYFLGGAAGNYWGQGTQVTVSS
  polyreactivity (PSR sort gate): high polyreactivity

## QVQLVESGGGLVQAGGSLRLSCAASGRTFYSYAMGWYRQAPGKERELVAAITWRASTYYADSVKGRFTISRDNAKNTVYLQMNSLKPEDTAVYYCAVRDYRPRYYTFLYNSPYDYWGQGTQVTVSS
  polyreactivity (PSR sort gate): high polyreactivity

## HVQLVESGGGLVQAGGSLRLRCAASGFTFYYNAMGWSRQAPGKERELVAAISTRGGNTYYADSVKGRFTISRDYAKNTVYLQRNSLKPEATAVYYCARIIRREGRYDYWGHGTQVTVSS
  polyreactivity (PSR sort gate): high polyreactivity

## QVQLVESGGGLVQAGGSLRLSCAASGSTNVVNAMGRYRQPPGKERELVAAITYSGGSTYYADSVKGRFTISRDNAKNTVYLQQNSLKPEDTAVYYCNTTLRDSRQYVDRAPYTRYDYWGQGTQVTVSS
  polyreactivity (PSR sort gate): low polyreactivity

## QVQLVESGGGLVQAGGSLRLSCAASGFILYTYAMGWYRQAPGKERELVADIDSGDGTYYADSVKGRFTISRDNAKNTVYLQMNSLKPEDTAVYYCAAQVVTWSYVYDVPGYYRYDYWGQGTQVTVSS
  polyreactivity (PSR sort gate): low polyreactivity

## QVQLVESGGGLVQAGGSLRLSCAASGSIFQRNAMGWYRQAPGKERELVAAISRSGGRTYYADSVKGRFTISRDNAKNTVYLQMNSLKPEDTAVYYCAADSPYIQNRFEYWGQGTQVTVSS
  polyreactivity (PSR sort gate): high polyreactivity

## PVQLVESGGGLVQAGGSLRLSWAASGRIFVVNAMGWYRQAPGKEREFLASITRGASTYADSVKGRFTISRDNAKNTVYLQMNSLKPEDTAVYYCSDAKRPQVVRYDWTKLEYWGQGTQVTVSS
  polyreactivity (PSR sort gate): high polyreactivity

## QVQLVESGRGLVQAGGSLRLSCAASGFIFSYYAMGWYRPAPGKERELVAAITVTGGNTNYADSVKGRFTISRDNAKNTVYLQMNSLKPEDTAVYYCAAVVRGPGVYVYDWGQGTQVTVSS
  polyreactivity (PSR sort gate): low polyreactivity

## QVQLVESGGCLVQPGGSLRLSCAASGRTSVRNAMGWYRQAPGKERELVAAISNGGRTNYADSVKGRFTISRGNAKNTVYLQMNSLKPQDTAVYYCAARGFWLYYHGGVRSGYDYWGQGTQVTVSS
  polyreactivity (PSR sort gate): high polyreactivity

## QVQLVESGGGLVQAGGSLRLRCAASGRYAMGWYRQAPGKEREFVARITWSGGSTYYADSVKGRFTISRDNAKNTVYLQMNSLNPEDTAVYYCAKVSRRTDYYYWGQGTQVTVSS
  polyreactivity (PSR sort gate): high polyreactivity

## QVQLVESGGGLVQAGGSLRLSCAASGSTFKQYAMGWYRQAPGKERELVAAISSSGSTYYADSVKGRFTISRDNAKNTVYLQMNSLKPEDTAVYYCARSRYLWYTVPPKYGYWGQGTQVTVSS
  polyreactivity (PSR sort gate): high polyreactivity

## QVQLVESGGGLVQAGGSLRLSCAASGSTFWIYAMGWYRQAPGKERELVAAITLRSGSTYYADSVKGRFTISRDNAKNTVYLQMYSLKPEDTAVYYCATDSWGVDRPNYNYWGQGTQVTVSS
  polyreactivity (PSR sort gate): low polyreactivity

## QVQLVESGGGLVQAGGSLRLSCAASGSIFLSNPMGWYRQAPGKERELVAAITSGGRTTYADSVKGRFTISRDNAKNTVYLQMNSLKPEDTAVYYCAARQRWYWRGYDYWGQGTQVTVSS
  polyreactivity (PSR sort gate): high polyreactivity

## QVQLEESGGGLVQAGGSLRLSCAASGCTLTDYAMGWYIQAPGKERELVAAISSVGSTNYADSVKGRFTISRDNAKNTVYLQMNSLKPEDTAVYYCAVDYGRAVQGDSITYDFNYWGQGTQVNVSS
  polyreactivity (PSR sort gate): low polyreactivity

## QVQHVESGGGLVQAGGSLRLSCAASGFIFRYYAMGWYRQAPGKERELVAAITWNGGSTYYADSVKGRFTISRDNAKNTVYLQLNSLKPEDTAVYYCADVPYTPSPYTYGYWGQGTQVSVSS
  polyreactivity (PSR sort gate): high polyreactivity

## QVQLVESGGGLVQAGGSLRLSCAASGRIFFPYAMGWYRQAPGKERELVAAINYSGGSTYYADSVKGRFTISRDNAKYTVYLQMNSLKPEDTAVYYCAKEYGKAYDYWGQGTLVTVSS
  polyreactivity (PSR sort gate): high polyreactivity

## QFQLVESGGGLVQAGGRLRLSCAASRSTFVLYDMGWYRQAPGKERELVAAISRSGDSTYYADSVKGRYTISRDNAKNTVYLQMNSLKPEDTAVYYCAAKRRISTGMDYWGQGTQVTVSS
  polyreactivity (PSR sort gate): high polyreactivity

## QVQLVESGGGLVQAGGSLRLSCAASGSIFYRNVMGWYRQAPGKERELVAAITGSGGITYYADSVKGRFTISRDNAKNTVYLQMNSLKPEDTAVYYCNKTSFLVKLDYWGQGTQVTVSS
  polyreactivity (PSR sort gate): low polyreactivity

## QVQLVESGGGLVQAGGSLRLSCAASGFIFRFYAMGWYRQAPGKERELVASISRRAGRTYYADSVKGRFTISRDNAKNTVYLQMNSLKPEDTAVYYCAASGFGSFRYSSTYDYWGQCTQVTVSS
  polyreactivity (PSR sort gate): high polyreactivity

## QVQLVESGGGLVQAGGSLRLSCAASGSTFQYNAMGWYRQAPGKERELVATITWSGGSTYYADSVKGRFTISRDNAKNTVYLQMNSLKPEDTAVYYCAADYYYGYEFGYWGQGTKVTVSS
  polyreactivity (PSR sort gate): low polyreactivity

## QVQLVESGGGLVQAGGSLRLSCAASGRIYAVNAMRWYRQAPGKERELVARIRRIGGSTYYADSVKGRFTISRDNAKNTVYLQMNSMKPEDTAVYYCAKTLGRRHPGYDYWGQGTQVTVSS
  polyreactivity (PSR sort gate): high polyreactivity

## QVQLVESGGGLVQAGGSLRLSCAASGFTFAYYAMGWYRQAPGKERELVASITSGGSTYYADSVKGRFTISRDNAKNTVYLQMNSLKPEATAVYYCAARVRSELIKRYYWGQGTQVTVSS
  polyreactivity (PSR sort gate): high polyreactivity

## QVQLVESGGVLVQAGGSLRLSCAASGSLFTRYAMGGYRQAPGKVRELVAAISKSGTTTYYADSVKGRFTISRDNAKNTVYLQMNSLIPEDTAVYYCAAVPIAGKMDYWGQGTQVTVSS
  polyreactivity (PSR sort gate): high polyreactivity

## QVQLVDSGGGLVQAGGSLRLSCAASGSIIKRKAMGWYRQAPGKERELVASISSGGSTHYADSVKGRFTISRDNAKNTVYLQMNSLKPEDTAVYYCAATSIRWSVGSFRRDYWGQGTQVTVSS
  polyreactivity (PSR sort gate): low polyreactivity

## QVQRVESGGGLVQAGGSLRLSCAASGSIFSIYAMGWYRQAPGKETELVAAIDSGTSTTYADSVKGRFTISRDNAKNTVYLEMNSLKPEDTAVYYCAAALYSDVAAVATYGYYCGQGTQVTVSS
  polyreactivity (PSR sort gate): low polyreactivity

## QVQLVESGGGLVQAGGSLRLSCAASGSTFLYYDMGWYRQAPGKERELVADITWSGSGTYYADSVKGRFTISRDNAKNTVYLQMNSLKPEDTAVYYCDADDTWRGDQYFYSYDYWGQGTQVTVSS
  polyreactivity (PSR sort gate): low polyreactivity

## QVQLEESGGGLVQAGGSLRLSCAASGRIFEYYAMGWYRQAPGIERELVAAINTGGNTYYADSVKGRFTISRDNAKNTVYLQMNSLKPEDTAVYYCATYPIWYGGYLSGTDYDYWGQGTQVTVSS
  polyreactivity (PSR sort gate): low polyreactivity

## QVQLVESGGGLVQAGGSLRLSCAASGFTFTAYAMGWYRPAPGKERELVAAISYRGGRTNYAYSVKGRFTISRDNAKNTVYLQMNSLKPEDTAVYYCAARPRISTREMDYWGQGTQVTVSS
  polyreactivity (PSR sort gate): high polyreactivity

## QVQLVESGGGLVQAGGSLRLSCAASRNNYPYYAMGWSRQEPGKERELVAAISGSGERTYYADSVKGRFTISRDNAKNTVFLQMNSLKPEDTAVYYCAAYRRYYGWYEYWGQGTLVTVSS
  polyreactivity (PSR sort gate): high polyreactivity

## QVQLVESGGGLVQAGGSLRISCAASGLTFVYYTMGWYSQAPGKEREFVAGIDWSGGSTYYADSVKLRFTISRDNAKNTVYLQMNSLKPEDTAVYYCAAAVYYQYGVYRHDYWGQGTQVTVSS
  polyreactivity (PSR sort gate): low polyreactivity

## QVQLVESGGRLVQAGGSIRLICAASGFTFIGYAMGWYRQAPGKERELVADITYSGSSTYYADSVKGRFTISRDNAKNTVYLQMNSLKPEDTAVYYCAAEAYYYCFDVDYWGQGTLVTVSS
  polyreactivity (PSR sort gate): low polyreactivity

## QVQLVESGGGLVQAGGSLRLSCAASGFIFVRYAMGWYRQAPGKERELVAAITKGGGRTYYADSVKGRFTISRDNAKNTVYLQMNSLKPEDTAVYYCATAGAHGRERDYWGQGTQVTVSS
  polyreactivity (PSR sort gate): high polyreactivity

## QVQLVESGGGLVQAGGSLRLSCAASGRTFRENAMGWYRQAPGKERELVAAISWRAGSTYYADSVKGRFTISRDNAKNTVYLQMNSLKPEDTAVYYCAAKYTVSFYLWGTFNYWGQGTQVTVSS
  polyreactivity (PSR sort gate): high polyreactivity

## QVQLVESGGGLVQAGGSLRLSCAASGSTFYIYAMGWYRQAPGKERELVARITRGGTTYADSVKGRFTISRDNAKNTVYLQINSLKPEDTAVYYCAARSFNIRGRYDYWGQGTQVTVSS
  polyreactivity (PSR sort gate): high polyreactivity

## QVQLVESGGGLVQAGGSLRLSCAASGFTFSFYSMGWYRQAPGKERELVASISDSDGITFYADSVKGSFTISRDNAKNTVYLQMNSLKPEDTAVYYCAADVAIAIPFSYDYWGQGTQVTVSS
  polyreactivity (PSR sort gate): low polyreactivity

## QVQHVESGGGLVQAGGSLRLSCAASGIIFFKNAMGWYRQAPGKERELVAAISSTDTRTYYADSVKGRFTISRDNAKNTVYLQMNSLKPEDTAVYYCAASRRGGGLDYWGQGTQVTVSS
  polyreactivity (PSR sort gate): high polyreactivity

## QVQLVESGGGLVQAGGSLRISCAASGSTLLRNAMGWYRQAPGKERELVAVITYSGGSTYYADSVKGRFTISRDNAKNTVYLQMNSLKPEDTAVYYCAADIWYYVRYPTDAYSKFDYCGQGTQVTVSS
  polyreactivity (PSR sort gate): low polyreactivity

## QVQLVESGGGLVQAGGSLRLSCAASGITFYYYAMGWYRQAPGKERELVAAISFRGGSTYYADSVKGRFTISRDNAKNTVYLQMNSLIPEDTAVYYCAAETSPSWYTWVTYDYWGQGTQVTVSS
  polyreactivity (PSR sort gate): high polyreactivity

## QFQLVESGGGLVQAGGSLRLSCAASGSTFLSNAMGWYRQAPGKERELVAGIDYNDGSTYYADSVKGRFTISRDNAKNTVYLKMNRLKPADTAVYYCAARWVFRRYVICMDFWGQGTEVTVSS
  polyreactivity (PSR sort gate): low polyreactivity

## QVQLVESGGGLVQAGGSLRLICAASGITFVEYSMGWYRQAPGKERDLVAAISWSGVRTRYADSVKGRFTISRDNAKNTVYLQMNSLKPEDTAVYYCYTVPRGGGGVRILDYWGQGTQVTESS
  polyreactivity (PSR sort gate): high polyreactivity

## QVQLVETRGGLVQAGGTLRLSFAASGSTFSYYTMGWYRHAPGTERELVGSIDSSGGSTYYADSVKGRFTISRDNAQNTVYLQMNSLKPEDTAVYYCATGDEWGYDYWGQGTQVTVSS
  polyreactivity (PSR sort gate): low polyreactivity

## QVQLVESGGGLVQAGGSLRLSCAASGSIFYYNTMGWYRQAPGKEREFVATITFSGSSTYYADSVKGRFTFSRDNAKNTVYLQMNSLKPEDTAVYYCAVTLEDYTYGYWGQGTQVTVSS
  polyreactivity (PSR sort gate): low polyreactivity
